The record followed here is publication PMC5801413.

One test addresses Human glu-plasminogen. The test can be described thus: ELISA. The following applies: 5 μg/ml immobilized CbiA protein, 10 μg/ml plasminogen, polyclonal antibody 1:1,000, read off a plot. A general note: An ELISA detects its analyte on a solid surface through an enzyme-linked reagent.
For test [1], the target named is His6-tagged CbiA of B. miyamotoi (B. miyamotoi). Description: ELISA; proteins (5 μg/ml) immobilised, plasminogen in the presence of increasing concentrations of NaBr; binding without NaBr set to 100%.
The target is the same in test [2]. Description: ELISA; CbiA (5 μg/ml) immobilised, increasing concentrations of plasminogen; non-linear regression, one-site specific binding model; apparent dissociation constant.
For test [3] the target is unchanged. Description: ELISA; proteins (5 μg/ml) immobilised, plasminogen in the presence of increasing concentrations of the lysine analog tranexamic acid; binding without tranexamic acid set to 100%.

With His6-tagged CbiA of B. miyamotoi K153A, the response (Absorbance at 490 nm) in the test with Human glu-plasminogen (parent: est. 0.72) was 1.1.

“His6-tagged CbiA of B. miyamotoi K153A; K154A; K162A; K188A”: the response (Absorbance at 490 nm) with Human glu-plasminogen (parent: est. 0.72) was 1.

His6-tagged CbiA of B. miyamotoi K154A: the response (Absorbance at 490 nm) with Human glu-plasminogen (parent: est. 0.72) is 0.83.

Take “His6-tagged CbiA of B. miyamotoi K154A; K162A”: the response (Absorbance at 490 nm) with Human glu-plasminogen (parent: est. 0.72) was 0.9.

Regarding “His6-tagged CbiA of B. miyamotoi K154A; K162A; K188A”, the response (Absorbance at 490 nm) in the test with Human glu-plasminogen (parent: est. 0.72) turned out to be 1.

As for “His6-tagged CbiA of B. miyamotoi K154A; R156A”, in the test with Human glu-plasminogen (parent: est. 0.78), the response (Absorbance at 490 nm) turned out to be 0.58.

Turning to His6-tagged CbiA of B. miyamotoi K162A, the response (Absorbance at 490 nm) in the test with Human glu-plasminogen (parent: est. 0.72) stood at 1.

With His6-tagged CbiA of B. miyamotoi K188A, in the test with Human glu-plasminogen (parent: est. 0.72), the response (Absorbance at 490 nm) stood at 0.81.

Turning to His6-tagged CbiA of B. miyamotoi R145A, in the test with Human glu-plasminogen (parent: est. 0.78), the response (Absorbance at 490 nm) was determined as 0.66.

Turning to His6-tagged CbiA of B. miyamotoi R156A, the response (Absorbance at 490 nm) with Human glu-plasminogen (parent: est. 0.78) turned out to be 0.6.

His6-tagged CbiA of B. miyamotoi R163A: the response (Absorbance at 490 nm) with Human glu-plasminogen (parent: est. 0.78) is 0.74.

Regarding His6-tagged CbiA of B. miyamotoi R185A, the response (Absorbance at 490 nm) with Human glu-plasminogen (parent: est. 0.78) was found to be 0.81.

As to Human glu-plasminogen (natural protein), the percent of binding at 250 mM NaBr (without NaBr = 100%) in test [1] was determined as 43%. Moreover, the Kd in test [2] is 0.347 µM. Also, in test [3], the percent decrease of binding with 0.1 mM tranexamic acid was more than 17% and the percent of binding at 10 mM tranexamic acid (without tranexamic acid = 100%) was 48%.
